US20140057833A1 (TEMPLE UNIVERSITY OF THE COMMONWEALTH SYSTEM OF HIGHER …, published 2014)
Non-standard residues stand in square brackets, D forms with d. No end group written: not given here. βAla = NCCC(=O)O

T1: AdipoR1 (UniProt Q96A54 1-375, limits assumed)
T1 sequence (looked up): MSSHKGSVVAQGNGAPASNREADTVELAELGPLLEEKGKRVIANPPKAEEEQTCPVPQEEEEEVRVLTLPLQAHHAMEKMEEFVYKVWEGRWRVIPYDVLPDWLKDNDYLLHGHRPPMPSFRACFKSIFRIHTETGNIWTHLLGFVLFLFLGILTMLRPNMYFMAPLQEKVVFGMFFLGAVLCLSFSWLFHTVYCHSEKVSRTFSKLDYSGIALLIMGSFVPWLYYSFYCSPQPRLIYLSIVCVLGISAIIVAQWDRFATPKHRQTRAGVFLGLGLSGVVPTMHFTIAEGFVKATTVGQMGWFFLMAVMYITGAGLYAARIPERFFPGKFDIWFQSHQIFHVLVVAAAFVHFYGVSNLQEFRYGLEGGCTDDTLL

B1: ADP 25-β-AlaNH2 (peptide)
peptide: NIPGLYYFAY[βAla]-NH2
modifications: N-terminus assumed
SMILES: CC[C@H](C)[C@H](NC(=O)[C@@H](N)CC(N)=O)C(=O)N1CCC[C@H]1C(=O)NCC(=O)N[C@@H](CC(C)C)C(=O)N[C@@H](Cc1ccc(O)cc1)C(=O)N[C@@H](Cc1ccc(O)cc1)C(=O)N[C@@H](Cc1ccccc1)C(=O)N[C@@H](C)C(=O)N[C@@H](Cc1ccc(O)cc1)C(=O)NCCC(N)=O

Target: T1, AdipoR1
Assay: cell-based or functional assay

Molecule | MCF-7 cell growth restriction at 50 ng/mL [%] | MCF-7 cell proliferation inhibition at 50 ng/mL relative to untreated controls [%]
globular adiponectin (gAd) (from UniProt Q15848 108-244) (ligand) | 18 | 
B1 |  | 20
